1 sequence from patent US8242083B2, “Kinase substrates” (PerkinElmer Health Sciences, Inc., priority 2008, dated 2012) can be followed below.

Holding throughout (assay type): biochemical
In one assay the target is T1, BMX (Homo sapiens, UniProt P51813).
T1 sequence (P51813 1-675): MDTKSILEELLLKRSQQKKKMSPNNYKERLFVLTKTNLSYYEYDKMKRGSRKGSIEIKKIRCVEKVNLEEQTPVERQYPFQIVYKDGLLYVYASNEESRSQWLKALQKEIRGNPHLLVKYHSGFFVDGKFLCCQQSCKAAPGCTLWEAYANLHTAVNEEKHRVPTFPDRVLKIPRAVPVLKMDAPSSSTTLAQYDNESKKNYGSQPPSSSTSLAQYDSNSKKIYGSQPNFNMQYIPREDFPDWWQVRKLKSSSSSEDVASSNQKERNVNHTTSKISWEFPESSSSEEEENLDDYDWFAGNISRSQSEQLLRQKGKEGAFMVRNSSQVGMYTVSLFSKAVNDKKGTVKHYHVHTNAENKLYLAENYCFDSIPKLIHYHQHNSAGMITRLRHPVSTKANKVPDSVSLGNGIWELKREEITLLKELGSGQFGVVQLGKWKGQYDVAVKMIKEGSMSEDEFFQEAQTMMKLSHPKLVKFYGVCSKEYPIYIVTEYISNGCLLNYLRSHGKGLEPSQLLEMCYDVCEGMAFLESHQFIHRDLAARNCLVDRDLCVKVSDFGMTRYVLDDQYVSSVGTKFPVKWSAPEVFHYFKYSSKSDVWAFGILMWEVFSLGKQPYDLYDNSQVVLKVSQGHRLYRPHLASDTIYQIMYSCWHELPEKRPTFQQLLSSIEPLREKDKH
The assay is described as follows: TR-FRET kinase assay, BMX. The following applies: Kinase Concentration 0.5 nM; 50 nM ULight-labeled substrate, 200 micromolar ATP, 2 hours. The protocol: (§1) TR-FRET kinase assays are performed under standardized conditions: various individual kinases are incubated with 50 nM of kinase substrate BRB1 labeled with the TR-FRET acceptor dye ULight (PerkinElmer) and 200 micromolar ATP in 10 μL of kinase assay buffer (50 mM HEPES pH7.5, 10 mM MgCl2, 3 mM MnCl2, 1 mM EGTA, 2 mM DTT and 0.01% Tween-20) for 2 hours at room temperature. Reactions are stopped with EDTA, and anti-phospho-tyrosine antibodies (clone PT66) labeled with the TR-FRET europium chelate donor dye are added to a final concentration of 2 nM in a final volume of 20 μL. The TR-FRET signal emitted at 665 nm is read one hour after the addition of antibodies using a TR-FRET plate reader such as the Envision® Multilabel Plate reader (PerkinElmer). The emitted signal at 665 nm is proportional to the extent of peptide phosphorylation, Control reactions indicative of background are performed excluding ATP from the reaction.
(§2) Assay conditions are identical to those used described for FIG. 1.

For a further assay, the target named is T2, EphB3 (Homo sapiens, UniProt P54753).
T2 sequence (P54753 34-998): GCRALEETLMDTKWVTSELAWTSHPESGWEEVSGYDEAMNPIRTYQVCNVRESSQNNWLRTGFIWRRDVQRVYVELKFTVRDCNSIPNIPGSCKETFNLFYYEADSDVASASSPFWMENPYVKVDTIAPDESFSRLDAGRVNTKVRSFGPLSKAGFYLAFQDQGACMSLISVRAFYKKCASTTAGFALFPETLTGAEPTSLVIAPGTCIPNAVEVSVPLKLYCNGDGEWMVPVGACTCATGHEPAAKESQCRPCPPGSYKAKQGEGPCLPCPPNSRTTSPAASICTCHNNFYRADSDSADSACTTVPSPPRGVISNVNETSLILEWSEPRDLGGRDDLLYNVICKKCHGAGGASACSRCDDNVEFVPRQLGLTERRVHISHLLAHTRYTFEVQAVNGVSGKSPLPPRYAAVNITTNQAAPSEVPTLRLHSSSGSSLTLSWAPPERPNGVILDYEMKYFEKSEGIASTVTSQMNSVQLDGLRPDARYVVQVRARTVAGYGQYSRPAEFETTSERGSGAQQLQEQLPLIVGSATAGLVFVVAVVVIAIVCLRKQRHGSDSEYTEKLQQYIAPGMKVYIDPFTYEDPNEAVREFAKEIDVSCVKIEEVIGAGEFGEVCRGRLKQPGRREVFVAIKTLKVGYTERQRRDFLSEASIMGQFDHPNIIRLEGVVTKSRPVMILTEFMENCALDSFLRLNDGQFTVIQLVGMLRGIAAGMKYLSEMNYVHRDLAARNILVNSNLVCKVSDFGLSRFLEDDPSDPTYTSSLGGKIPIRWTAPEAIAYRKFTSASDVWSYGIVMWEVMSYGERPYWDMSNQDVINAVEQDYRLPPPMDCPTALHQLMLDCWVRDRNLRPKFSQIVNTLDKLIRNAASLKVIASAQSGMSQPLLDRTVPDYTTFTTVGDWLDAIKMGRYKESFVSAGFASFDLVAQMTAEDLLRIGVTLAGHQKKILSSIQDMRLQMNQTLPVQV
The assay is described as follows: TR-FRET kinase assay, EphB3. As to conditions: Kinase Concentration 0.1 nM; 50 nM ULight-labeled substrate, 200 micromolar ATP, 2 hours. The protocol: as §1, §2
A general note: TR-FRET usually uses a lanthanide donor and a delayed reading to cut background.

The target of the next assay is FLT4 (Homo sapiens, UniProt P35916). The assay is described as follows: TR-FRET kinase assay, FLT4. The following applies: Kinase Concentration 0.25 nM; 50 nM ULight-labeled substrate, 200 micromolar ATP, 2 hours. The method, then:
as §1, §2

Sequence of FLT4 (P35916 25-1363, species assumed): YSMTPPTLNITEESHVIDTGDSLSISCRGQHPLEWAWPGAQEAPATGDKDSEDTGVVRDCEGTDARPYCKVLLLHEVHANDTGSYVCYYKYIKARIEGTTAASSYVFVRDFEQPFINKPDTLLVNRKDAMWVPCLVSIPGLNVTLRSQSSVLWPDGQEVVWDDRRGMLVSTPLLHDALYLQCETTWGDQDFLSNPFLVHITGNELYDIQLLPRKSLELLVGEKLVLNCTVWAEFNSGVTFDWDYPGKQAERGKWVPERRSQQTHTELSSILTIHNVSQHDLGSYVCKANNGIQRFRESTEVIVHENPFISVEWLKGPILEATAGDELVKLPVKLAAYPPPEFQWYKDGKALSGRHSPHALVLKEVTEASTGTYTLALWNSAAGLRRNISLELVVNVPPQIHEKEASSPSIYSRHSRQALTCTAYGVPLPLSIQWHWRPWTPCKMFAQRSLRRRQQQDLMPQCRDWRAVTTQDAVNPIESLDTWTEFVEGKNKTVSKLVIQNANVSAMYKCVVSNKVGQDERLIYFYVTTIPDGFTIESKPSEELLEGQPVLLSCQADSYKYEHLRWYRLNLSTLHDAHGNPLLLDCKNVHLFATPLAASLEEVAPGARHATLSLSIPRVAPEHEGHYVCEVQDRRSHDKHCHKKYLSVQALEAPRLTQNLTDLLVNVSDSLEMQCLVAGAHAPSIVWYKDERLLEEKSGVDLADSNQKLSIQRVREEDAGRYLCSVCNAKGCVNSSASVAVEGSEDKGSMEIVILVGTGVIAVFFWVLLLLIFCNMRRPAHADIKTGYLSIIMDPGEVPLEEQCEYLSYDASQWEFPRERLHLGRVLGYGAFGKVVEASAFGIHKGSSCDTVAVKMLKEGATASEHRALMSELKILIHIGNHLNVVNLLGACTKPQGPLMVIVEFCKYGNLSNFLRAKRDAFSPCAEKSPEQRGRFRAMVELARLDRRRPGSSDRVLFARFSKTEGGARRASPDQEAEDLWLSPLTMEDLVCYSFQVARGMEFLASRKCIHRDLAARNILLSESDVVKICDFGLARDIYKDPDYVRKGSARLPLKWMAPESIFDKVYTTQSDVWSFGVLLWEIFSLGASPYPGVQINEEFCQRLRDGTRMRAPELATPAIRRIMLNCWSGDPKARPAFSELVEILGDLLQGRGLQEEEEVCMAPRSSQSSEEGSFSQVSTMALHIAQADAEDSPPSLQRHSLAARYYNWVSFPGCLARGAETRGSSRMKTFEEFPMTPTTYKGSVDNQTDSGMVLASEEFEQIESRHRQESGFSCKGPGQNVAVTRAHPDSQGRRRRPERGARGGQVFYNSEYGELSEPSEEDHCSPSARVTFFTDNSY

With “C AYE AYE AYE K EYA EYA EYA K AYA EYE R (CAYEAYEAYEKEYAEYAEYAKAYAEYER; tyrosine kinase substrate peptide) [BRB1]”, the results for the “Signal to Noise ratio with BRB1 Peptide” value in the assay with BMX, in the assay with EphB3 and in the assay with FLT4 were 7.1, 24.7 and 20.0, respectively.
